Patent publication US6824971 (SLOAN KETTERING INSTITUTE FOR CANCER RESEARCH, dated 2004)
Blank lines part the entries; values can stand above or below the binder they belong to.

B2: Smad4/DPC4 C-terminal domain, amino acids 294-552 (other)
chain: MPPHPGHYWPVHNELAFQPPISNHPAPEYWCSIAYFEMDVQVGETFKVPSSCPIVTVDGYVDPSGGDRFCLGQLSNVHRTEAIERARLHIGKGVQLECKGEGDVWVRCLSDHAVFVQSYYLDREAGRAPGDAVHKIYPSAYIKVFDLRQCHRQMQQQAATAQAAAAAQAAAVAGNIPGPGSVGGIAPAISLSAAAGIGVDDLRRLCILRMSFVKGWGPDYPRQSIKETPCWIEIHLHRALQLLDEVLHTMPIADPQPLD
notes: Construct for mammalian cells (pCMV5), Flag- or HA-tagged; also called Smad4(C); Smad4 C domain

Legend:
[1] = target: the molecule itself; assay: gel filtration of recombinant full-length protein
Protocol: The full-length Smad4/DPC4 proteins, both wild-type and point mutants, were overexpressed at room temperature in E.coli using a pET vector (Novagen). Smad4/DPC4 protein in the soluble fraction of the E. coli lysate was partially purified by ion exchange chromatography (Q-Sepharose) and was applied to a gel filtration column (Superdex200) in 50 mM Tris, 200 mM NaCl, 5 mM DTT, pH 8.0. Aliquots from the fractions corresponding to molecular weight standards between 440 kDa and 25 kDa were taken for immunoblots with a rabbit polyclonal antibody raised against the Smad4/DPC4-C-terminal domain. The results were visualized with the ECL Western analysis and detection system (Amersham). In addition, the WT full-length Smad4/DPC4 was also cloned as a GST-fusion protein and purified to near homogeneity over a glutathione column. The fusion protein was then cleaved with Thrombin and the. Smad4/DPC4 protein was futher purified by anion-exchange chromatography (Source 15Q column).
The fractions were visualized with Coomassie staining. […] Gel filtration fractions of partially purified wild-type and mutant Smad4/DPC4 proteins were analyzed by immunoblots with anti-Smad4/DPC4 antibody.

[2] = target: the molecule itself; assay: co-IP of differentially tagged constructs, COS cells
Text: (§1) The full-length Smad4/DPC4 and Smad2, Smad4/DPC4-C-terminal domain encoding amino acids 294–552 (SEQ ID NO.:1) and the Smad2-C-terminal domain encoding amino acids 248–467 (SEQ ID NO.:3) were subcloned into the mammalian expression vector pCMV5. All Smad4/DPC4 point mutations were generated by a polymerase chain reaction (PCR)-based method and were confirmed by DNA sequencing. Mammalian COS-1 cells were transiently transfected with the indicated FLAG- and HA-tagged constructs by the DEAE-dextran method. Two days after transfection, cells were incubated with 200 pM TGF-β1 for one hour. Cells were lysed and subjected to immunoprecipitation followed by immunoblot as described. The wash buffers contained 150 mM NaCl for all immunoprecipitation experiments except for the homo-oligomerization assays of the full-length wild-type Smad4/DPC4 and point mutants, where 250 mM NaCl was employed to better differentiate the WT and mutant activities.
(§2) To assay for homo-oligomerization, mammalian COS-1 cells were transiently transfected with Flag-tagged wild-type Smad4/DPC4-C-terminal domain (WT) and HA-tagged WT or mutant constructs. For hetero-oligomerization, cells were transfected with Flag-tagged Smad2 C-terminal domain and HA-tagged Smad4/DPC4 C-terminal domain WT or mutant constructs together with constitutively active TGF-β type I receptor construct. […]

[3] = target: B2; assay: co-IP, Flag-WT C-terminal domain with HA-mutant, COS-1 cells
Text: as §1, §2

[4] = target: B2; assay: co-IP, Flag-WT with HA-mutant, COS-1 cells
Text: as §1, §2

[5] = target: T1, Recombinant Smad4/DPC4 C-terminal domain, residues 319-552 (human); assay: crystal structure, trimer (three interfaces in total); conditions: remark: other sources report otherwise
T1 chain: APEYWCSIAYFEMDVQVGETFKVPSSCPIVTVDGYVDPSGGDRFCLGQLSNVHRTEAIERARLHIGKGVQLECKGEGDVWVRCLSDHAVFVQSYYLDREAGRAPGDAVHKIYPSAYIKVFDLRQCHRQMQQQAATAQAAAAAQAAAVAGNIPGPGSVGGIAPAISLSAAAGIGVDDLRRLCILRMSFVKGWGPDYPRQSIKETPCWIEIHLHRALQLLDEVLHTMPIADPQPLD

B1: Smad4/DPC4 full-length Gly508Ser (other)
chain: MDNMSITNTPTSNDACLSIVHSLMCHRQGGESETFAKRAIESLVKKLKEKKDELDSLITAITTNGAHPSKCVTIQRTLDGRLQVAGRKGFPHVIYARLWRWPDLHKNELKHVKYCQYAFDLKCDSVCVNPYHYERVVSPGIDLSGLTLQSNAPSSMMVKDEYVHDFEGQPSLSTEGHSIQTIQHPPSNRASTETYSTPALLAPSESNATSTANFPNIPVASTSQPASILGGSHSEGLLQIASGPQPGQQQNGFTGQPATYHHNSTTTWTGSRTAPYTPNLPHHQNGHLQHHPPMPPHPGHYWPVHNELAFQPPISNHPAPEYWCSIAYFEMDVQVGETFKVPSSCPIVTVDGYVDPSGGDRFCLGQLSNVHRTEAIERARLHIGKGVQLECKGEGDVWVRCLSDHAVFVQSYYLDREAGRAPGDAVHKIYPSAYIKVFDLRQCHRQMQQQAATAQAAAAAQAAAVAGNIPGPGSVGGIAPAISLSAAAGIGVDDLRRLCILRMSFVKSWGPDYPRQSIKETPCWIEIHLHRALQLLDEVLHTMPIADPQPLD
notes: Full-length point mutant; also called G508S
binding result [1]: binds

Binder: B2
binding result [2]: binds

B3: Smad4/DPC4 C-terminal domain Gly508Ser (other)
chain: MPPHPGHYWPVHNELAFQPPISNHPAPEYWCSIAYFEMDVQVGETFKVPSSCPIVTVDGYVDPSGGDRFCLGQLSNVHRTEAIERARLHIGKGVQLECKGEGDVWVRCLSDHAVFVQSYYLDREAGRAPGDAVHKIYPSAYIKVFDLRQCHRQMQQQAATAQAAAAAQAAAVAGNIPGPGSVGGIAPAISLSAAAGIGVDDLRRLCILRMSFVKSWGPDYPRQSIKETPCWIEIHLHRALQLLDEVLHTMPIADPQPLD
notes: HA-tagged; also called G508S; developmental L3 loop mutation
binding result [3]: binds

B4: Smad4/DPC4 C-terminal domain Val370Asp (other)
chain: MPPHPGHYWPVHNELAFQPPISNHPAPEYWCSIAYFEMDVQVGETFKVPSSCPIVTVDGYVDPSGGDRFCLGQLSNDHRTEAIERARLHIGKGVQLECKGEGDVWVRCLSDHAVFVQSYYLDREAGRAPGDAVHKIYPSAYIKVFDLRQCHRQMQQQAATAQAAAAAQAAAVAGNIPGPGSVGGIAPAISLSAAAGIGVDDLRRLCILRMSFVKGWGPDYPRQSIKETPCWIEIHLHRALQLLDEVLHTMPIADPQPLD
notes: HA-tagged; tumor-derived trimer interface mutation; also called V370D
binding result [4]: no binding

The remaining lines, values ahead:

binding result [4]: no binding
B5: Smad4/DPC4 C-terminal domain Arg361Cys (other)
chain: MPPHPGHYWPVHNELAFQPPISNHPAPEYWCSIAYFEMDVQVGETFKVPSSCPIVTVDGYVDPSGGDCFCLGQLSNVHRTEAIERARLHIGKGVQLECKGEGDVWVRCLSDHAVFVQSYYLDREAGRAPGDAVHKIYPSAYIKVFDLRQCHRQMQQQAATAQAAAAAQAAAVAGNIPGPGSVGGIAPAISLSAAAGIGVDDLRRLCILRMSFVKGWGPDYPRQSIKETPCWIEIHLHRALQLLDEVLHTMPIADPQPLD
notes: HA-tagged; tumor-derived trimer interface mutation; also called R361C

buried surface area [5]: 4800 Å^2
B6: Recombinant Smad4/DPC4 C-terminal domain, residues 319-552, O70437 319-552 (protein)
chain: APEYWCSIAYFEMDVQVGETFKVPSSCPIVTVDGYVDPSGGDRFCLGQLSNVHRTEAIERARLHIGKGVQLECKGEGDVWVRCLSDHAVFVQSYYLDREAGRAPGDAVHKIYPSAYIKVFDLRQCHRQMQQQAATAQAAAAAQAAAVAGNIPGPGSVGGIAPAISLSAAAGIGVDDLRRLCILRMSFVKGWGPDYPRQSIKETPCWIEIHLHRALQLLDEVLHTMPIADPQPLD
